Biological target: T1, COOH-terminal domain of Numb (aa 298–603), purified (human, UniProt P49757-2 298-603)
T1 sequence (looked up): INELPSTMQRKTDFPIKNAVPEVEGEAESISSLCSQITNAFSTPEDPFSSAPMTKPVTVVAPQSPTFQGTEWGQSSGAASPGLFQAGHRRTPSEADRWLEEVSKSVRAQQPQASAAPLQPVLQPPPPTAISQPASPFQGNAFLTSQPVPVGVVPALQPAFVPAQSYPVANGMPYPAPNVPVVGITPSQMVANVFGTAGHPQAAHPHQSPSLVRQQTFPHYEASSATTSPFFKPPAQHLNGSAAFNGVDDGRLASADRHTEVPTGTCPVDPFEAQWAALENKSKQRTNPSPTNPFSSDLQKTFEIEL
Assay: pull-down

binding result: binds
B1: GST–α ear (GST fusion protein containing aa 715–977 of the mouse α adaptin) (domain or fragment, UniProt P17426 715-977, looked up)
chain: PMALLADPAPAADPGPEDIGPPIPEADELLNKFVCKNSGVLFENQLLQIGVKSEFRQNLGRMYLFYGNKTSVQFQNFLPTVVHPGDLQTQLAVQTKRVAAQVDGGAQVQQVLNIECLRDFLTPPLLSVRFRYGGTAQSLTLKLPVTINKFFQPTEMAAQDFFQRWKQLSLPLQEAQKIFKANHPMDAEVTKAKLLGFGSALLDNVDPNPENFVGAGIIQTKALQVGCLLRLEPNAQAQMYRLTLRTSKEPVSRHLCELLAQQF
